The target of data set [1] is KRS (lysyl-tRNA synthetase, full-length 1-597) (Homo sapiens) (UniProt Q15046). The data set can be described thus: EMSA. The settings on record: affinity from percent free tRNA; 0.1 uM tRNA; 20 mM HEPES pH 7.5, 20 mM KCl, 5 mM MgCl2, 2 mM DTT, on ice. On the technique in general: Mobility shift assays separate free from complexed probe on a gel.
Data set [2] relates to Flavo-KRS (monomeric full-length KRS with E. coli flavodoxin inserted at G310) (Homo sapiens / Escherichia coli fusion). The data set can be described thus: EMSA. To be noted: affinity from percent free tRNA; slightly weaker than native KRS; 0.1 uM tRNA; 20 mM HEPES pH 7.5, 20 mM KCl, 5 mM MgCl2, 2 mM DTT, on ice.

1 substance from patent US20130052177 can be followed below.

KRS (lysyl-tRNA synthetase, full-length 1-597) (Homo sapiens), sequence (Q15046 whole entry, the tested form may be a part): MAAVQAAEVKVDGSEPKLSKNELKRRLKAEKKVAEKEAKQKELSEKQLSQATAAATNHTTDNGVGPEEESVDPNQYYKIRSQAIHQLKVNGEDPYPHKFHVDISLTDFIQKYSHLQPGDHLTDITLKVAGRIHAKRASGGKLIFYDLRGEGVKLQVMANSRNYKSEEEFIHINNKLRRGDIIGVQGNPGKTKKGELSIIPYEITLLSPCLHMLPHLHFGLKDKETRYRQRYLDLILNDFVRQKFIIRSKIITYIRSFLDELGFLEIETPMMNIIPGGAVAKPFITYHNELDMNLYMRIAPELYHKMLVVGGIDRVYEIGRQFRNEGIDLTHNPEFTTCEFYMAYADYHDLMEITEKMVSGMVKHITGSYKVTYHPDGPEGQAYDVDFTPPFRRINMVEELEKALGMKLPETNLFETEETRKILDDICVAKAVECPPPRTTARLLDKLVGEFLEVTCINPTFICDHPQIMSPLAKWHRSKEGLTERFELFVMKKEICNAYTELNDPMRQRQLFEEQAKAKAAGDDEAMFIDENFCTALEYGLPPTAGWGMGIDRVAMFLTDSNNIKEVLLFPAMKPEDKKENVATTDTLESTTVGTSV

Take human tRNALys3 (in vitro transcript): the results for the Kd in data set [1] and in data set [2] were 870 nM and 1210 nM, respectively.

What is called Kd is the concentration at which binding is half-saturated.
